Data: US20230122364A1 (VANDERBILT UNIVERSITY, published 2023)

Tests used:
[1] = target: T1, SRBD subdomain of SARS-CoV-2 S protein (SARS-CoV-2, UniProt P0DTC2 319-541); assay: ELISA, purified IgG
SARS-CoV-2 NTD = target: T2, SARS-CoV-2 NTD (SARS-CoV-2, UniProt P0DTC2 14-305); assay: ELISA, purified IgG
T2 construct: domain: NTD

[2] = target: T1, SRBD subdomain of SARS-CoV-2 S protein; assay: ELISA on coated SRBD
[3] = target: T3, SARS-CoV-2 spike (S) protein on authentic SARS-CoV-2 virus (strain WA1/2020) (SARS-CoV-2, UniProt P0DTC2 14-1273); assay: cell-based or functional assay
[4] = target: T3, SARS-CoV-2 spike (S) protein on …; assay: cell-based or functional assay; remark: listed apart in the source

| Binder | OD 450 nm [1] | OD 450 nm (SARS-CoV-2 NTD) | EC50 [2] | SARS-CoV-2 focus reduction test, IC50 [3] | Neutralization IC50 (FRNT, authentic SARS-CoV-2 WA1/2020) [4] | Nano-luciferase virus reduction test, SARS-CoV-2, IC50 [3] |
| --- | --- | --- | --- | --- | --- | --- |
| COV2-2103 (antibody, V domains shown) VH: EVQLVESGGGLVQPGGSLRLSCAASGFTFSRHWMTWVRQAPGKGLEWVANIKQDGSEKYYVDSVKGRLTISRDNAKNSLYLQMNSLRAEDTAVYYCARLGFYYGGADYWGQGTLVTVSS VL: NFMLTQPHSVSESPGKTVTISCTGSSGSIASNYVQWYQQRPGSAPTTVISEDNQRPSGVPDRFSGSIDSSSNSASLTISGLKTEDEADYYCQSYDGINRAWVFGGGTKLTVL | 4.3 OD 450 nm | 0.12 OD 450 nm | 1.1 ng/mL | > 1000 ng/mL | 1970 ng/mL |  |
| COV2-2082 (antibody, V domains shown) VH: EVQLVESGGGVVRPGGSLRLSCAASGFIFDDYDMTWVRQAPGKGLEWVSGISWNGGNTGYADSVKGRFTISRDNAKNSLYLQMNSLRAEDTALYHCAVIMSPIPRYSGYDWAGGAFDIWGQGTMVTVSS VL: SSELTQDPAVSVALGQTVRITCQGDSLRSYYASWYQQKPGQVPILVIYDKNNRPSGIPDRFSGSSSGNTASLTITGAQAEDEADYYCNSRDSSGNAVVFGGGTKLTVL | 4.3 OD 450 nm | 0.11 OD 450 nm | 0.6 ng/mL | 302 ng/mL | 204 ng/mL | < 200 ng/mL |
| COV2-2961 (antibody, V domains shown) VH: EVQLVQSGPEVKKPGTSVKVSCKASGFTFMSSAVQWVRQARGQRLEWIGWIVIGSGNTNYAQKFQERVTITRDMSTSTAYMELSSLRSEDTAVYYCAAPYCSSISCNDGFDIWGQGTMVTVSS VL: not shown |  |  |  | 30 ng/mL |  |  |
| COV2-2050 (antibody, V domains shown) VH: QVQLVQSGAEVKKPGASVKVSCKASGYTFTDYYMHWVRQAPGQGLEWMGWINPNSRGTNYAQKFQGRVTMTRDTSISTVYMELSRLTSDDTAVYYCARVVVLGYGRPNNYYDGRNVWDYWGQGTLVTVSS VL: not shown | 4.3 OD 450 nm | 0.12 OD 450 nm | 1.6 ng/mL | 25 ng/mL | 80 ng/mL | < 50 ng/mL |
| COV2-2098 (antibody, V domains shown) VH: EVQLLESGGGLIQPGGSLRLSCAASGFTFSNYAMSWVRQAPGKGLEWVSGIISTSGGATYNADSVRGRFTTSRDNSKNILYLQMNSLRGEDTAVYYCVKGLFDWFPLWGQGTMVTVSS VL: DIVMTQSPATLSVSPGERAILSCRASQSVRSNLAWYQQKPGQAPRLLISGASTRATAIPARFSGSGSGTEFTLTITSLQSEDCAVYYCHQYNNWPQTFGQGTKVEIK | 4.2 OD 450 nm | 0.15 OD 450 nm | 0.7 ng/mL | 776 ng/mL | 1030 ng/mL | < 100 ng/mL |
| COV2-2113 (antibody, V domains shown) VH: EVQLVESGGGLIQPGGSLRLSCAASEVTVSSNYMSWVRQAPGKGLEWVSLIYSGGTTYYADSVKGRFTISRDNSKNTLYLQMNSLRAEDTAVYYCARDFLRWHDLWGQGTLVTVSS VL: DIQMTQSPSSLSASVGDRVTITCQASQDINNYLNWYQQKPGKAPKLLIYDASNLETGVPLRFSGSGSGTDFIFTISSLQPEDIATYYCQQYDNLPPVFGGGTKVEIK | 4.4 OD 450 nm |  | 0.6 ng/mL | 427 ng/mL | 1040 ng/mL | < 300 ng/mL |
| COV2-2132 (antibody, V domains shown) VH: EVQLVESGGGLIQPGGSLRLSCAASEVTVSSNYMSWVRQAPGKGLEWVSLIYSGGTTYYADSVKGRFTISRDNSKNTLYLQMNSLRAEDTAVYYCARDFLRWHDLWGQGTLVTVSS VL: DIQMTQSPSSLSASVGDRVTITCQASQDINNYLNWYQQKPGKAPKLLIYDASNLETGVPLRFSGSGSGTDFTFTISSLQPEDIATYYCQQYDNLPPVFGGGTKVEIK |  | 0.15 OD 450 nm |  | 673 ng/mL |  | < 300 ng/mL |
| COV2-2068 (antibody, V domains shown) VH: EVQLVESGGGLVQPGGSLRLSCAASGFTVSSNYMSWVRQAPGKGLEWVSVIYPGGSAFYADSVKGRFTISRHNSNNTLCLQMNSLRTEDTAVYYCARSYDILTGYRDAFDIWGQGTMVTVSS VL: QSVLTQPPSVSGAPGQRVTISCTGSSSNIGSGSDVHWYQQLPGTAPKLLIYGNTNRPSGVPDRFSGSKSGTSASLAITGLQAEDEADYYCQSYDSRLSGFVVFGGGTKLTVL | 4.3 OD 450 nm | 0.1 OD 450 nm | 1.2 ng/mL | 864 ng/mL | 478 ng/mL | < 300 ng/mL |
| COV2-2046 (antibody, V domains shown) VH: EVQLVESGGGLVQPGRSLRLSCAASGFTFDDYAMHWVRQAPGKGLEWVSGISWNSGSIAYTDSVKGRFTISRDNAKNSLYLQMNSLRAEDTALYYCAKAHSTGHQYYYGMDVWGQGTTVTVSS VL: DIQMTQSPSSLSASVGDRVTITCRASQSISSFLNWYQQKPGKAPKLLIYAAFNLQSGVPSRFSGSGSGTDFTLTISSLQSEDFATYYCQQSYNTPYTFGQGTKLEIK |  | 0.09 OD 450 nm |  | 171 ng/mL |  | < 100 ng/mL |
